From patent US20260209362A1 (VIB VZW, published 2026)

T1: biotinylated recombinant human IL-12Rβ2 (produced in-house) (human, UniProt Q99665 24-622, randomly biotinylated)
T1 construct: also called hIL-12RB2; human IL-12RB2
T1 sequence: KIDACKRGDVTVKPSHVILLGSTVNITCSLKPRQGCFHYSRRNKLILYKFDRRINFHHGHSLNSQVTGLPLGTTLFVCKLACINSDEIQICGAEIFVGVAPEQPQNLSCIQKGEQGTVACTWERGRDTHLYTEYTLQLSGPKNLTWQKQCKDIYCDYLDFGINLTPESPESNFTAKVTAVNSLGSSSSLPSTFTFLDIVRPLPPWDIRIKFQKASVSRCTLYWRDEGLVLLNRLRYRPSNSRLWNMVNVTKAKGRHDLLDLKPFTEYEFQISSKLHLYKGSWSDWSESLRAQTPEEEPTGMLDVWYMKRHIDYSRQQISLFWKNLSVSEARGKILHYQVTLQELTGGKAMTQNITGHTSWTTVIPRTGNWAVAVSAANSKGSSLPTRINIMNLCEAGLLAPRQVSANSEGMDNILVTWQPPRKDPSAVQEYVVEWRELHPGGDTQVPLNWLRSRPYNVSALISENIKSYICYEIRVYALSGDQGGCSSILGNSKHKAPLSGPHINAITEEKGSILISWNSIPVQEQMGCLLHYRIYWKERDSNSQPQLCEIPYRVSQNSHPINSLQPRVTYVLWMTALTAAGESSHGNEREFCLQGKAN

T2: biotinylated recombinant mouse IL-12Rβ2 (produced in-house) (mouse, UniProt P97378 24-637, randomly biotinylated)
T2 construct: also called mIL-12RB2; mouse IL-12RB2
T2 sequence: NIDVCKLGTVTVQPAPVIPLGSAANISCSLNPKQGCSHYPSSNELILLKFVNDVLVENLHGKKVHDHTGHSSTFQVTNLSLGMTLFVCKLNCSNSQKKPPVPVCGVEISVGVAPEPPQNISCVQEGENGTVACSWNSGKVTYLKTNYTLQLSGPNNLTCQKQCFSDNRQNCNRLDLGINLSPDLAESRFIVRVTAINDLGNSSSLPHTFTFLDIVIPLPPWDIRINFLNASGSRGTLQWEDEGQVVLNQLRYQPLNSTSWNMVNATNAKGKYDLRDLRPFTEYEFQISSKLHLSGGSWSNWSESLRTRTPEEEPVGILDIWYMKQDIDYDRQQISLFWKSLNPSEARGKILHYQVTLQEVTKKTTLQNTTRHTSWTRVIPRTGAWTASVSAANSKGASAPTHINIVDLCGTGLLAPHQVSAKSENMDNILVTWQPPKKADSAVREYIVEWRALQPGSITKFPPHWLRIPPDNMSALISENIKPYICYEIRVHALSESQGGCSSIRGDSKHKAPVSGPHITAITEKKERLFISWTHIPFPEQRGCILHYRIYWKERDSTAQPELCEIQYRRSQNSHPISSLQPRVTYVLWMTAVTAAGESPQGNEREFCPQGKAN

T3: human IL-12Rβ2 (human, UniProt Q99665 24-862)
T3 construct: Expressed on HEK293T cells transiently transfected with a pcDNA3 plasmid (Genscript clone OHu21785); also called hIL-12RB2; IL-12 receptor β2 subunit
T3 sequence: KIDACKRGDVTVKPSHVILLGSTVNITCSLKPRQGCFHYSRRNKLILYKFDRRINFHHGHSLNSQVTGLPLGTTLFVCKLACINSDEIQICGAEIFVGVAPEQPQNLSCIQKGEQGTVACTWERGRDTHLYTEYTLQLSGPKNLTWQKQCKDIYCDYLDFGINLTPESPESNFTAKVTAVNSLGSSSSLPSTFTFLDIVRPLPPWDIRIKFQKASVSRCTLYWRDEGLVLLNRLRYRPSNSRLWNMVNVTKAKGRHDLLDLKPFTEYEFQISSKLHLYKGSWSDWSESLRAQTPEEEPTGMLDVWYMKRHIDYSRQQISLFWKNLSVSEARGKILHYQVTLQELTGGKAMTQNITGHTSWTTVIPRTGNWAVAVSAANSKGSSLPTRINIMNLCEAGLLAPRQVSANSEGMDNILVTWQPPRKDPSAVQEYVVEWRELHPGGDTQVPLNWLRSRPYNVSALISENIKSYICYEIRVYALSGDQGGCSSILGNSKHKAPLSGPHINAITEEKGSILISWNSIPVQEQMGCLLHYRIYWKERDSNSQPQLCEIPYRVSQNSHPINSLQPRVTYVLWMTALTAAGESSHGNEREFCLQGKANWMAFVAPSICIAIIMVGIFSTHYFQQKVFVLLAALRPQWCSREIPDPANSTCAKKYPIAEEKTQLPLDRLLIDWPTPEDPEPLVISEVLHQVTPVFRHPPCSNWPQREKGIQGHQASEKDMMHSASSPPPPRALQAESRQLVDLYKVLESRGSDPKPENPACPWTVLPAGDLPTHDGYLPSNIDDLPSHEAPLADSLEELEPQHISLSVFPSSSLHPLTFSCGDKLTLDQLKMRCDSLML

T4: mouse IL-12Rβ2 (mouse, UniProt P97378 24-874)
T4 construct: Expressed on HEK293T cells transiently transfected with a pcDNA3 plasmid (Genscript clone OMu01776); also called mIL-12RB2; NP_032380.1
T4 sequence: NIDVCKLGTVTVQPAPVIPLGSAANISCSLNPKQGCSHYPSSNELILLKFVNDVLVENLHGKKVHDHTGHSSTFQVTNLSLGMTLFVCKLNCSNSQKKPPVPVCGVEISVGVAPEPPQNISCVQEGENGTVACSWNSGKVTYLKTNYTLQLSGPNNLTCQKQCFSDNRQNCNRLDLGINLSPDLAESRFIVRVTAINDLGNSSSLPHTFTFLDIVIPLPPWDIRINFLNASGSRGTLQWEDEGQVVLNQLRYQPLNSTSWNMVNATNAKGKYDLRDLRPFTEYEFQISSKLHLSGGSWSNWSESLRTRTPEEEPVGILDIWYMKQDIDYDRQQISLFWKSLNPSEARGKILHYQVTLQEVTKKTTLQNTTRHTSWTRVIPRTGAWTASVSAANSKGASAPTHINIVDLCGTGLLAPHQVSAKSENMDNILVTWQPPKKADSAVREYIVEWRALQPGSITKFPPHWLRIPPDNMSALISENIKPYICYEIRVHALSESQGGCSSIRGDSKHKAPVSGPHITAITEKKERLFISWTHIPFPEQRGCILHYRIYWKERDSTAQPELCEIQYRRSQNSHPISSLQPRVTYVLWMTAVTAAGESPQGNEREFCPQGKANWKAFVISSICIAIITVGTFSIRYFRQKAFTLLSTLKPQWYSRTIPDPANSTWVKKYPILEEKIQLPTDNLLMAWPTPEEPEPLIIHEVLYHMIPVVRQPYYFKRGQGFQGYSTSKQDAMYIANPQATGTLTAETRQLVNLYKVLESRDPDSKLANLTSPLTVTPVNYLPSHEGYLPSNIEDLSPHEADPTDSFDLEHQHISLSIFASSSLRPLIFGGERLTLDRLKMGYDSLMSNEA

B1: anti-IL-12Rβ2 VHH clone 2CRM88 (VHH)
VHH: QVQLQESGGGLVQAGGSLRLSCQASGRTFSNYRMGWFRQAPGKEREFVAGINWDGGHTYYTDSVKGRFTISRDNAKNTVYLQMNSLKPEDTAVYQCAVRVREYGSSRYEDQFDYWGQGTQVTVSS
notes: Tested as periplasmic extract; CDR3 group 18; also called 20453
B2: anti-IL-12Rβ2 VHH clone 2CRM16 (VHH)
VHH: QVQLQESGGGLVQAGGSLRLSCAASGRTFSNYRMGWFRQAPGKEREFVAGINWDGGHTYYTDSVKGRFTISRDNAKNTVYLQMNSLKPEDTAVYQCAVRVREYGSSRYEDQFDYWGQGTQVTVSS
notes: Tested as periplasmic extract; CDR3 group 18
B3: anti-IL-12Rβ2 VHH clone 3CRHM200 (VHH, not shown: small tags and cut ends)
VHH: QVQLQESGGGLVQPGGSLRLSCAASGRTFSNYAMAWFRQAPGTEREFVAGLSGSGGDTAFYDNSVMGRFTISRDSAKNTMWLQINNLKPEDTAVYYCAAATHVVVSYGLVRRRGTYDYWGQGTQVTVSS
notes: periplasmic extract; also called 21064
B4: anti-IL-12Rβ2 VHH clone 3CRHM99 (VHH, not shown: small tags and cut ends)
VHH: QVQLQESGGGLVQPGGSLRLSCAASGISSSRLHVGWFRQSPGKEREFVAAISLSGGTQAYTDSVKGRFTISGDNVKNTAYLQMNSLRPEDTAVYYCAARERFIWTWSDLTYDYWGQGTQVTVSS
notes: periplasmic extract; also called 21062
B5: anti-IL-12Rβ2 VHH clone 3CRHM73 (VHH, not shown: small tags and cut ends)
VHH: QVQLQESGGGLVQAGGSLSLSCAASGSAFRLNFMGWYRQAPGKQRELVAAINSGGTEIYHDSVKGRFTISRDNADSTVWLQMNSLKPDDTAVYYCAADRGISWSKLAGGMDYWGKGTQVTVSS
notes: periplasmic extract; also called 21060
B6: anti-IL-12Rβ2 VHH clone 2CAM88 (VHH)
VHH: QVQLQESGGGLVPPGDSLRLSCAASGRTFSSYTMGWFRQAPGKEREFVARISQDGGSTYYADSMKGRFTVARDNAKNTVYLQMNSLKPEDTAVYYCAADMIKWGLRVGVDSFKYWGQGTQVTVSS
notes: Tested as periplasmic extract; CDR3 group 17
B7: anti-IL-12Rβ2 VHH clone 3CRHM12 (VHH, not shown: small tags and cut ends)
VHH: QVQLQESGGGSVQAGGSLRLSCAVSGRTVSDYAMGWFRQAPGKEREFVAAMSSSETTVYPNSVKGRITISRDNAKNAVYLQMNALKPEDTAVYYCSMGPIVTFQGLARQNEYHYWGQGTQVTVSS
notes: periplasmic extract
B8: anti-IL-12Rβ2 VHH clone 3CRHM133 (VHH, not shown: small tags and cut ends)
VHH: QVQLQESGGGSVQAGGSLRLSCAVSGRPVSDYAMGWFRQAPGKEREFVAALSASDTTVYPNSVKGRITISRDNAKNAVDLQMNALKPEDTAVYYCAMGPIGTFQGLARQNEYHYWGQGTQVTVSS
notes: periplasmic extract; also called 21063
B9: anti-IL-12Rβ2 VHH clone 3CAHM40 (VHH, not shown: small tags and cut ends)
VHH: QVQLQESGGGSVQAGGSLRLSCAVSGRTVSDYAMGWFRQAPGKEREFVAAMSSSETTVYPNSMKGRITISRDNAKNAVYLQLNALKPEDTAVYYCSMGPIATFQGLARQNEYHYWGQGTQVTVSS
notes: periplasmic extract
B10: anti-IL-12Rβ2 VHH clone 3CRHM240 (VHH, not shown: small tags and cut ends)
VHH: QVQLQESGGGSVQAGGSLRLSCAVSGRTVSDYAMGWFRQAPGKEREFVVAMSSSETTVYTNSVKGRITISRDNAKNAVYLQMNALKPEDTAVYYCSMGPITTFQGLARQNEYHYWGQGTQVTVSS
notes: periplasmic extract; also called 21065
B11: anti-IL-12Rβ2 VHH clone 3CRHM20 (VHH, not shown: small tags and cut ends)
VHH: QVQLQESGGGLVQAGGSLRLSCAASGRTFSKSTMGWFRQTPGKEREFVAAITWTDTEVYANSVKDRFTISRDNAKNTFYLQMHSLKLEDTAVYYCAGDRYGSSRDSVFSSPTNYPYWGQGTQVTVSS
notes: periplasmic extract; also called 21055
B12: anti-IL-12Rβ2 VHH clone 3CRHM85 (VHH, not shown: small tags and cut ends)
VHH: QVQLQESGGGLVQPGGSLRLSCAASRRTFSKHAMAWFRQAPGKEREFVAVVRWSGIITYYADSVKGRFTISRDDAKNTVYLQMDSLKPEDTAVYYCAAGDYRGNGYYVPGMYDYWGQGTQVTVSS
notes: periplasmic extract; also called 21061
B13: anti-IL-12Rβ2 VHH clone 3CRM66 (VHH)
VHH: QVQLQESGGGLVQPGGSLRLSCAASGSTFSIHAMGWYRQAPGKKRELVARITRGGSTNYADSVKGRFTISVDNAKNTVYLQMNSLKPEDTAVYDCNAETGWGEWDDYWGQGTQVTVSS
notes: Tested as periplasmic extract; CDR3 group 42; also called 20461

Legend:
[1] = biological target: T1, biotinylated recombinant human IL-12Rβ2 …; assay: ELISA, periplasmic extract on biotinylated human IL-12Rβ2; control streptavidin-coated blocked wells
[2] = biological target: T2, biotinylated recombinant mouse IL-12Rβ2 …; assay: ELISA, periplasmic extract on biotinylated mouse IL-12Rβ2; control streptavidin-coated blocked wells
[3] = biological target: T3, human IL-12Rβ2; assay: flow cytometry, P.E. on transfected HEK293T cells
[4] = biological target: T4, mouse IL-12Rβ2; assay: flow cytometry, P.E. on transfected HEK293T cells

Binder | ELISA binding hIL-12RB2/control [1] | ELISA binding mIL-12RB2/control [2] | % cells bound [3] | dMFI [3] | % cells bound [4] | dMFI [4]
B1 | 0.873 ratio to control | 3.73 ratio to control |  |  |  | 
B2 | 0.947 ratio to control | 4.12 ratio to control |  |  |  | 
B3 |  |  | 35.3% | 694 | 17.2% | 470
B4 |  |  | 24.4% | 558 | 10.7% | 351
B5 |  |  | 19.5% | 397 | 10.4% | 357
B6 | 0.998 ratio to control | 62.3 ratio to control |  |  |  | 
B7 |  |  | 30.4% | 495 | 1.21% | 103
B8 |  |  | 33.7% | 721 | 0.59% | 133
B9 |  |  | 32.7% | 544 | 1.02% | 105
B10 |  |  | 33.7% | 635 | 0.33% | 43
B11 |  |  | 28.7% | 556 | 0.18% | 86
B12 |  |  | 31.2% | 676 | 0.74% | 157
B13 | 1.38 ratio to control |  |  |  |  | 
